The data set in a line: soluble on expression in E. coli; label from the status in PepcDB or PDB records.
In the case of “LGQTAYQKDSLARLARRGDELGTLARDFNRMGERLQSLIGSQRQLLRDVSHELRSPLARLRIALALAERAEPEARAQMWPRLEQECDRLEALIGEILALARLDAEPGASQRIALLPLLQRLREDALLLAPEQDIRLEVAPDLSIDGWPDMFERAVDNLLRNAVRFNPVGQPLEVRASSAGDYLRLSVRDHGPGIAAELQEQLGEPFFRAPNQSSPGHGLGLAIARRAIERHGGHLRLGNHPDGGFIATLSLPLRRKAT”, the “soluble on expression in E. coli” value was “not soluble”.

As for “MGSDKIHHHHHHMVRQFLPLNGLRAFEASARHLSFTRAAIELCVTQAAVSQQVKGLEKRLGVALFQRLPRGLKITAEGEALLPTVTSSFDQMATTLDRIEAGQVRELLFLGVVGTFAVGWLLPRLAAFQKRHPFIDVRVSTNNNRVDMAAEGLDFAIRFGQGSWHGTDAFRLFEAPLSPLCTPKLAEMLKEPADLMDATLLRSYRADEWSTWFAAAGVSPAAQVNAGIVFDTSLGMMEAALQGLGVALAPPSMFSRHLTSGAVMQPFPVTISLGSYWLTRLQSKPQTSAMQAFSDWLLETIGTA”, the “soluble on expression in E. coli” value is given as “not soluble”.

On to “GAMEVIKNPKVFIDPLSVFKEIPFREDILRDAAIAIRYFVKNEVKFSNLFLGLTGTGKTFVSKYIFNEIEEVKKEDEEYKDVKQAYVNCREVGGTPQAVLSSLAGKLTGFSVPKHGINLGEYIDKIKNGTRNIRAIIYLDEVDTLVKRRGGDIVLYQLLRSDANISVIMISNDINVRDYMEPRVLSSLGPSVIFKPYDAEQLKFILSKYAEYGLIKGTYDDEILSYIAAISAKEHGDARKAVNLLFRAAQLASGGGIIRKEHVDKAIVDYEQERLIEAVKALPFHYKLALRSLIESEDVMSAHKMYTDLCNKFKQKPLSYRRFSDIISELDMFGIVKIRIINRGRAGGVKKYALVEDKEKVLRALNETFEDSISIGDFDDVGEN”, for which the “soluble on expression in E. coli” value is “soluble”.

Regarding “GLVPRGSHMMEILRGSPALSAFRINKLLARFQAANLQVHNIYAEYVHFADLNAPLNDSEQAQLTRLLQYGPALSSHTPAGKLLLVTPRPGTISPWSSKATDIAHNCGLQQVDRLERGVAYYIEASTLTAEQWRQVAAELHDRMMETVFSSLTDAEKLFIHHQPAPVSSVDLLGEGRQALIDANLRLGLALAEDEIDYLQEAFTKLGRNPNDIELYMFAQANSEHCRHKIFNADWIIDGKPQPKSLFKMIKNTFETTPDYVLSAYKDNAAVMEGSAVGRYFADHNTGRYDFHQEPAHILMKVETHNHPTAISPWPGAATGSGGEIRDEGATGRGAKPKAGLVGFSVSNLRIPGFEQPWEEDFGKPERIVTALDIMTEGPLGGAAFNNEFGRPALTGYFRTYEEKVNSHNGEELRGYHKPIMLAGGIGNIRADHVQKGEIVVGAKLIVLGGPAMNIGLGGGAASSMASGQSDADLDFASVQRDNPEMERRCQEVIDRCWQLGDANPILFIHDVGAGGLSNAMPELVSDGGRGGKFELRDILSDEPGMSPLEIWCNESQERYVLAVAADQLPLFDELCKRERAPYAVIGDATEEQHLSLHDNHFDNQPIDLPLDVLLGKTPKMTRDVQTLKAKGDALNRADITIADAVKRVLHLPTVAEKTFLVTIGDRTVTGMVARDQMVGPWQVPVADCAVTTASLDSYYGEAMSIGERAPVALLDFAASARLAVGEALTNIAATQIGDIKRIKLSANWMAAAGHPGEDAGLYDAVKAVGEELCPQLGLTIPVGKDSMSMKTRWQEGNEQREMTSPLSLVISAFARVEDVRHTLTPQLSTEDNALLLIDLGKGHNALGATALAQVYRQLGDKPADVRDVAQLKGFYDAMQALVAARKLLAWHDRSDGGLLVTLAEMAFAGHCGVQVDIAALGDDHLAALFNEELGGVIQVRAEDRDAVEALLAQYGLADCVHYLGQALAGDRFVITANDQTVFSESRTTLRVWWAETTWQMQRLRDNPQCADQEHEAKANDTDPGLNVKLSFDINEDIAAPYIATGARPKVAVLREQGVNSHVEMAAAFHRAGFDAIDVHMSDLLGGRIGLGNFHALVACGGFSYGDVLGAGEGWAKSILFNHRVRDEFETFFHRPQTLALGVCNGCQMMSNLRELIPGSELWPRFVRNHSDRFEARFSLVEVTQSPSLLLQGMVGSQMPIAVSHGEGRVEVRDDAHLAALESKGLVALRYVDNFGKVTETYPANPNGSPNGITAVTTENGRVTIMMPHPERVFRTVANSWHPENWGEDSPWMRIFRNARKQLG”, the “soluble on expression in E. coli” value is “soluble”.

With “MGSDKIHHHHHHMPLERLNFLGLRNLAALDMRPGPGINLITGANGSGKTSLLEGMHVLGMARSFRTQKLKHAIAHDADAVTLHGRVAGDPPVALGVRRARDASELEIRLDGERGVRVARLAEALPLQLINPDAFRLLEGSPAARREFLDWGVFHVKHEFFEAWRRVRRALKHRNALLRHDRIDARSMRVWEQELAHWSELLDALRSEYMAQFAKAFEDTLHELLPLSGLSLRYYRGWDKQRGLLEVLEGGRDTDRQMGFTQQGPQRADLRLRIGKRAAVEELSRGQQKLVVSALKLAQGRLLDELTGRTCVYLIDDLPAELDVTHRRIFCHWLERLRCQVFITSVEREALANAWQSETDVAMFHVEHGRLLTE”, the “soluble on expression in E. coli” value is “not soluble”.

For the sequence “MGSDKIHHHHHHMKKKDMNKQVKIQDAVAAIILAEGPAGVSTTKVAKRVGIAQSNVYLYFKNKQALIDSVYARETNRILSTTDLDRLSDSTIDVTTRIRLYVQQVYDYSLANPDSLTIIQQIKALNGQGMTISAADADPNNIVANLLTAAIDAKVIKQLPVSLHMGVVFSTIHTHTTNISKGRYAQDQYTFGDIFQMIWDAMKQD”, the “soluble on expression in E. coli” value is “not soluble”.

On to “GKSTTLFSRHTKAIVWGMQTRAVQGMLDFDYVCSRDEPSVAAMVYPFTGDHKQKFYWGHKEILIPVFKNMADAMRKHPEVDVLINFASLRSAYDSTMETMNYAQIRTIAIIAEGIPEALTRKLIKKADQKGVTIIGPATVGGIKPGCFKIGNTGGMLDNILASKLYRPGSVAYVSRSGGMSNELNNIISRTTDGVYEGVAIGGDRYPGSTFMDHVLRYQDTPGVKMIVVLGEIGGTEEYKICRGIKEGRLTKPIVCWCIGTCATMFSSEVQFGHAGACANQASETAVAKNQALKEAGVFVPRSFDELGEIIQSVYEDLVANGVIVPAQEVPPPTV”, for which the “soluble on expression in E. coli” value is “soluble”.

For “MSQNSDTFDSGLQMEVHKMAEADNSSVQQKFDAIRDYIGRKETTIILCEHDDSRKIKLTLNKQRMESSMFLTEMPDGGIQEKTKFHRNGLAVCSYNAFDEVDLPLADSYIFYGLPSNVEAFPRMLHGIEKSAHKENKIVFIDIVVSILEKIQIKVVSFELYNRKCTVPTWVAELVITYCAPIEEQQQRIEEIRRTRASVPVAISDAANGSAEMVPSNTTGSSGSPMSTAPVPAAKKEKVQYESIRQIRPNAQGRYFVPARMINMDIEMSNDEYSPDESENDENEYDYENAARYDDGYDEGHEYCQ”, the “soluble on expression in E. coli” value is reported as “not soluble”.

On to “MSTNYEAIIIGAGQAGLAAAHELSRRGFTPGKDFLVLDSNDGPGGAWRHRWDSLTLGKAHGIADLPGLPMNRPDPKTPASTLVAGYYGAYENEFSFAVVRPVKVSRVEPTSEDPSSPLRVSSDDGREWITRMVLNATGTWTNPYVPYIPGIDKFQGKQLHTVNYRKAEDFKGKKVLVVGGGLSAVQFLLELEGLAETTWATRRPPNFTQREFDAGWGIAVERAVRERTFNGKAPASVVRTTGIPQIPDYLAGVDRGLIVSRGMFEEITPTGVVFGEPPAERSEGLGPSAGTTLAVPESWKPYPAGTHLDVDVIFWNTGFRAALRHLAPMKLRGQGRGIELIDEVSPASDARVLLVGYGSTASTVGATRAGRVAGRVAAKRLLVDVSPHVNLEHHHHHH”, for which the “soluble on expression in E. coli” value is “not soluble”.

Take “DSDVEIATIALLDTVQPAHLAPDTKEETVKRWERYSAFAKKTYGLDFPVPYELLETAGEDALLAMMAEFLSTTDATEHGLSAGVLEHQRASFVDNRILDRMDMQRWANVKIPVMLFRAERMHDGAIELEPAYAEIEPDGGWSAIVEDLVIIQLSGDHLAVVDEPEIGKVGVALTNRIEQLQGK”: the “soluble on expression in E. coli” value is “not soluble”.

Consider “MRIGELSKETGVSERSLRHYEEKGLLPSKRLANGYRDFDESAIEKVELIQMYLQIGLNLEETARMLRCLEIEPHLYDNPCSSILTLYEDKLNEVTKQITLLSNIQANLQKHVSLLKQAKEKE”, for which the “soluble on expression in E. coli” value is “not soluble”.

For “MGSDKIHHHHHHMRNITVPSNYFHTRERLGALGGIVQHHTALYRSVAVYEPTVVIVRRGCKKLRWAGRELRIAAGEAVGLAGGQTLDVINIPDSDGLYQAQWIAFEQETVERFAAQYGTAQAVCDAVKLPHPGRMGAAFDYAAAVLADEEVPHNAAEAALCGVLAWLQHDGIGFAVYGGVNLMRQIRKLITADMAADWSSAMLAQRLNCSEAALRRRLARQDTNFRTLLTDVRMMRALTLLQVTQWSVAQIAGAVGYDCPSRFSARFKELFGCVPSVVRSEAEPAAYRRTGQVSVGVRP”, the “soluble on expression in E. coli” value is “not soluble”.

Take “QVQLQESGGGLVQPGGSLRLSCAASGFTFSNSAMSWVRQAPGKGLEWVSSISGSGGNTYSADSVKGRFTISRDNAKNSLYLQMNSLRAEDTAVYYCARDWYGMDVWGQGTTVTVSS”: the “soluble on expression in E. coli” value is reported as “soluble”.

Turning to “AFTFLHTADLHLDAPLRAVALRDPELAAEIGVASRTAFSRIVDLCLAEAVAFLVIAGDLWDGTYSSTKTPRFLKQELLRLEAAGIGCYILRGNHDALARQTGELEAPANTTVFGARPSTVELSIDGQPVALHGLSFREPHAPESLLPRYPAPKPGAFNLGLMHTSLNGSPGHDPYAPCSLAELEAHGYDYWALGHIHRRFVHRGRATVVMPGTPQGRDIGEAGAASVTLVQVGDDGAVTLEERSVA”, the “soluble on expression in E. coli” value is reported as “not soluble”.

As for “MSLTKSSKYDTAFLKENMMGPNAIKIIEELLESLKLEEGMRVLDLGCGKGLTSIFLAKEYGVTVFATDLWISATENYERIKSMGLEDKIIPIHAEAHDLPFAQEYFDVAISVDAYHYFGIEEDYLTKHLAPLVKKGGKIAVAVPGLKKEFENGVPEKLQPYWFEDMTLTLHSLDWWYNLWKKADSVSIEECKELKCLEETWQDWLSCDNDYARRDIGMMEAEGGNYFNLVSIIATRLEGHHHHHH”, the “soluble on expression in E. coli” value is listed as “soluble”.

For the sequence “MGSDKIHHHHHHMEKQNNHIDRRGFLKIVGISAATTTAALYGCGSGTKSSQGRNASSPVPTDQMTYRSVGGIKDKVSLLGYGCMRWPTVPSPEGKGDLINQEAVNELVDYAIAHGVNYFDTSPVYVQGWSEKATGIALKRHPREKLYIATKLSNFSNFSRENSLAMYHQSFKDMQVEYFDYYLLHAIGGGGMKVFNERYIDNGMLDFLLKEREAGRIRHLGWSFHGDVEVFDQVLAMHDTVKWDFVQIQLNYVDWRHATGNNVNAEYLYGELAKRNIAAVIMEPLLGGRLSNVPEHIVGRLKQRRPEDSVASWAFRFAGSPELVLTVLSGMTYMEHLQDNIRTYSPLVPLTDDDKEYLEETAQLMMQYPTIPCNDCKYCMPCPYGIDIPAILVHYNKCVNEGNIPQSQTSENYKEARRAFLVGYDRSVPKLRQASHCIGCNQCTPHCPQSIHIPEELHRIDRFVEQLKQGTL”, the “soluble on expression in E. coli” value is “not soluble”.

As to “MGSDKIHHHHHHMTTLTFQSTTLSAIHQNNQIWLTVTEIGKALGYSDPFKSVKNIYDRHADEFTPQMTALIDMRTNGGIQKVRIFSLRGAHLIGMLSHTKVAKDFRRWVLDILDREAQQPKQLALPQPEKTYTVPLTEYRNCHLKTRVFLVHSTSYCPFLSNKKALTWRAWGWLGLFISLACICLDKIHRRE”, the “soluble on expression in E. coli” value is “not soluble”.

As for “SFALEELPRIPDFTERAICELFELYASIESVQLPPQSSDATNSSSATAPGNIFSAERGPRYLGPRALVRFFTELGVDMRSLAALAFAWLGRWQYPCHCREEGFARGVRYALWALDRRQHNEPRRWEQVQATCSTLLETSIWPRESTALFERLRSAFPDAVLSYTQRSAEAALDFYLFAFDLNRQSPYRRSLSLTDARYLWKQFLSESCYLATPASPGTPAGVANQPWRYLEHFDAYLESRCGMAGTIISRDTWYWVLMFARETQVAGSSFFANYNQGDAWPVLLDGFVEYLRENKLLSS”, the “soluble on expression in E. coli” value is reported as “soluble”.

The record behind these values is the DeepSol protein solubility set.
